{"source": "patent US20210162028A1", "about": "“Methods for Inducing Intermittent Fasting and Modulating Autophagy” (The Hong Kong Polytechnic University, priority 2019, published 2021)", "molecules": {"B1": {"name": "N-ABD094-rhArg: recombinant human arginase fused to albumin binding domain ABD094 (SEQ ID NO: 50); engineered long-acting arginine-depleting enzyme (protein)", "chain": "MHHHHHHDEAVDANSLAEAKEAANAELDSYGVSDFYKRLIDKAKTVEGVEALKDAILAALPSGSNNNNNNGSGGMSAKSRTIGIIGAPFSKGQPRGGVEEGPTVLRKAGLLEKLKEQECDVKDYGDLPFADIPNDSPFQIVKNPRSVGKASEQLAGKVAEVKKNGRISLVLGGDHSLAIGSISGHARVHPDLGVIWVDAHTDINTPLTTTSGNLHGQPVSFLLKELKGKIPDVPGFSWVTPCISAKDIVYIGLRDVDPGEHYILKTLGIKYFSMTEVDRLGIGKVMEETLSYLLGRKKRPIHLSFDVDGLDPSFTPATGTPVVGGLTYREGLYITEEIYKTGLLSGLDIMEVNPSLGKTPEEVTRTVNTAVAITLACFGLAREGNHKPIDYLNPPK", "modifications": "N-ABD094-rhArg, Synthesized in the Lab", "notes": "engineered long-acting arginine-depleting enzyme"}}, "key": {"[1]": {"test": "Glucose tolerance test (GTT)", "format": "in vivo, mouse"}, "Rotarod test": {"test": "Rotarod test", "format": "in vivo, mouse"}, "LC3-II/LC3-I": {"system": "LC3-II/LC3-I", "test": "Autophagic flux in liver, LC3-II/LC3-I western blot with chloroquine", "format": "in vivo, mouse", "settings": "DIO male mice on HFD; 600 U once a week, 4 weeks; Day 3 of cycle", "procedure": "Ratio of LC3-II/LC3-I proteins was used as a marker of autophagy and was semiquantified by western blotting. Chloroquine (an autophagy inhibitor, CQ) was injected 5 hr to accumulate autophagosome in the liver before tissue collection. *P<0.05, one-way ANOVA followed by Bonferroni test. Data are expressed as mean±SEM, n=3 for each group.\nAutophagy is involved in cell growth, survival, development and death. Impaired autophagic flux has been linked to a variety of human pathophysiological processes, including neurodegeneration, cancer, myopathy, cardiovascular and immune-mediated disorders. There is a growing need to identify and quantify the status of autophagic flux in different pathological conditions. Autophagy is a highly dynamic and complex process that is regulated at multiple steps. Autophagic flux can be detected by LC3-II turnover using western blot analysis in the presence and absence of lysosomal degradation inhibitors, chloroquine (CQ). If autophagic flux is occurring, the level of LC3-II will increase in the presence of a lysosomal degradation inhibitor because the transit of LC3-II through the autophagic pathway will be blocked."}, "hepatocyte": {"system": "hepatocyte", "test": "Transmission electron microscopy of liver (hepatocytes)", "format": "in vivo, mouse", "settings": "for TEM of liver: autophagosomes / TEM of liver: lipid droplets: DIO C57BL/6J male mice on HFD, 3 weeks, Day 3", "text": "FIG. 47 illustrates the liver examined by transmission electron microscopy at Day 1, Day 3, Day 5 and Day 7 of the 7-day intermittent after N-ABD094-rhArg injection.\nThe presence of autophagosome in liver after treatment for 3 weeks were examined by TEM (FIGS. 62, 63 and 64).\nThe presence of autophagosome in liver after treatment for 3 weeks were examined by transmission electron microscopy (FIGS. 71 and 72)."}, "[2]": {"system": "p62, LC3-II/LC3-I, p70S6K1, ULK1", "test": "Western blotting of autophagy markers in brown adipose tissue", "format": "in vivo, mouse", "settings": "600 U once a week, 4 weeks", "text": "FIG. 49 illustrates the changes of relative p62 protein levels, detected by western blotting, at different days of a 7-day intermittent fasting cycle in the brown adipose tissue (BAT) of HFD-induced C57BL/6J DIO male mice administered with 600 U N-ABD094-rhArg (SEQ ID NO: 50) once a week for 4 weeks. The p62 protein is a receptor for cargo destined to be degraded by autophagy. The marked reduction in p62 levels from Day 1 to Day 3 indicated enhanced autophagy that coincided with the entry into the fasting phase. The increase in p62 levels from Day 5 to Day 7 implicated a decrease in autophagy, which coincided with the entry into the refeeding phase. *P<0.05, one-way ANOVA followed by Bonferroni test. Data are expressed as mean±SEM, n=4 for each group.\nRatio of LC3II/LC3-I was used as a marker of autophagy and semiquantified by western blotting. Chloroquine (an autophagy inhibitor, CQ) were injected 5 hr to accumulate autophagosomes in the BAT before tissue collection. *P<0.05, one-way ANOVA followed by Bonferroni test. Data are expressed as mean±SEM, n=4 for [HFD (vehicle)] and [HFD (rhArg)] group without CQ; n=3 for CQ-treated group.\nData are expressed as mean±SEM, n=4 each group.\nThe p62, also known as SQSTMl/sequestome 1, serves as a link between LC3B and ubiquitinated substrates and is efficiently degraded by autophagy. Thus, the level of p62 proteins can be used to monitor autophagic flux. For example, autophagic suppression correlates with an increased p62 level, and similarly, autophagic activation correlates with a decreased p62 level. […] Besides, the expression level of autophagy marker LC3B was detected in presence or absence of CQ (FIG. 50). The conversion of LC3B -I to the lower migrating form, LC3B-II, is used as an indicator of cellular autophagy level. The higher the LC3B-II/LC3B-I ratio indicates the higher incidence rate of autophagy in the tissue."}, "[3]": {"system": "primary culture of mouse hypothalamic neurons", "test": "Western blot of primary culture of mouse hypothalamic neurons", "format": "cell-based", "settings": "2 U/mL", "text": "The arcuate nucleus in the hypothalamus has received extensive attention as an integrator and regulator of energy homeostasis and appetite. These neurons can rapidly sense metabolic fluctuations in the blood. Others have recently implicated autophagy in central appetite regulation and leptin sensitivity (Park et al., Nature Communications. 2020; 11: 1914). Knockdown of an essential autophagy gene autophagy-related 7 (Atg7), leads to accumulation of p62 in POMC neurons, resulting in an increase in bodyweight and appetite. Besides, it has been shown that amino acid deprivation/imbalance can trigger a reduction in food intake via eIF2α/ATF4 pathway [Maurin et al., Cell Rep. 2014 Feb. 6(3): 438-444]. In our study, mature hypothalamic neurons (after 14 day in vitro culture) were exposed to vehicle or 2 U/mL N-ABD094-rhArg (SEQ ID NO: 50) for 1 hr, 4 hrs, 8 hrs or 24 hrs. After treatment, proteins were harvested from whole cell lysate of neurons and subjected to western blot analysis for examining the short-term effect of arginine depletion on hypothalamic neurons. Autophagy markers (LC3B and p62) were analyzed. […] These findings supported that N-ABD094-rhArg (SEQ ID NO: 50) induced an autophagic flux in hypothalamic neurons."}, "[4]": {"test": "Insulin tolerance test (ITT)", "format": "in vivo, mouse", "settings": "17-month old C57BL/6J male mice on chow diet; once a week; at 13 weeks"}, "[5]": {"settings": "300 U/week rhArg and/or 300 mg/kg metformin"}, "[6]": {"settings": "rhArg weekly and/or 0.33 mg RA daily"}, "[7]": {"settings": "HFD-fed male mice, 600 U once a week, 4 weeks"}, "[8]": {"settings": "DIO male mice on HFD, Day 3 of cycle"}}, "note": "“Also recorded” adds a separate entry of the source.", "data": [{"molecule": "B1", "values": [{"measurement": "Glucose tolerance in GTT", "setting": "[1]; 16-month old DIO C57BL/6J male mice on HFD, once a week, at 12 weeks", "value": "effectively reverse impaired glucose tolerance"}, {"measurement": "Glucose tolerance in GTT", "setting": "[1]; 17-month old C57BL/6J male mice on chow diet, once a week, at 15 weeks", "value": "to a level better than mice in CD Young (vehicle) group; also recorded: effectively improve glucose tolerance"}, {"measurement": "Glucose tolerance in GTT", "setting": "[1]; DIO C57BL/6J male mice on HFD, 300 U/week rhArg and/or 300 mg/kg metformin, after 7 weeks", "value": "significant improvement on glucose tolerance"}, {"measurement": "Glucose tolerance in GTT", "setting": "[1]; DIO C57BL/6J male mice on HFD, 600 U once a week, after 3 weeks (reduced daily food intake experiment)", "value": "improved glucose tolerance"}, {"measurement": "Glucose tolerance in GTT", "setting": "[1]; DIO C57BL/6J male mice on HFD, 600 U once a week, at 3 weeks (artificial IF experiment)", "value": "significant improvement in glucose tolerance by 3 weeks of treatment"}, {"measurement": "Glucose tolerance in GTT", "setting": "[1]; DIO C57BL/6J male mice on HFD, about 600 U once a week, at 15 and 31 weeks", "value": "significant improvement in glucose tolerance to a level comparable with the lean control mice; also recorded: effectively reverse impaired glucose tolerance"}, {"measurement": "Glucose tolerance in GTT", "setting": "[1]; DIO C57BL/6J male mice on HFD, rhArg weekly and/or 0.33 mg/day RA, after 7 weeks", "value": "cannot relieve glucose intolerance"}, {"measurement": "Glucose tolerance in GTT", "setting": "[1]; DIO ICR female mice on HFD, once a week, at 16 and 30 weeks", "value": "Improved glucose tolerance"}, {"measurement": "Rotarod test: latency to fall", "setting": "Rotarod test; DIO C57BL/6J male mice on HFD, weekly for 30 weeks", "value": "latency similar to mice in CD (vehicle) group"}, {"measurement": "Rotarod test: performance", "setting": "Rotarod test; DIO ICR female mice on HFD, weekly, at 55 weeks", "value": "significantly better than mice in HFD (vehicle) group"}, {"measurement": "LC3-II/LC3-I ratio in liver upon chloroquine injection (autophagic flux)", "setting": "LC3-II/LC3-I", "value": "dramatic increase; also recorded: enhancement of autophagic flux"}, {"measurement": "TEM of liver: autophagosomes", "setting": "hepatocyte; [5]", "value": "autophagosome was rarely seen"}, {"measurement": "TEM of liver: lipid droplets", "setting": "hepatocyte; [5]", "value": "significant decrease in lipid droplet size"}, {"measurement": "TEM of liver: autophagosomes", "setting": "hepatocyte; 300 U/week rhArg and/or 300 mg/kg metformin, listed as N-ABD-rhArg (SEQ ID NO: 50)", "value": "no autophagosome is observed"}, {"measurement": "TEM of liver: autophagosomes", "setting": "hepatocyte; [6]", "value": "autophagosome was rarely seen"}, {"measurement": "TEM of liver: lipid droplets", "setting": "hepatocyte; [6]", "value": "significant decrease in lipid droplet size"}, {"measurement": "TEM of liver: autophagosomes", "setting": "hepatocyte; rhArg weekly and/or 0.33 mg RA daily, listed as N-ABD-rhArg (SEQ ID NO: 50)", "value": "no autophagosome is observed"}, {"measurement": "TEM of liver, Day 1 of the 7-day cycle", "setting": "hepatocyte; [7]", "value": "autophagosomes and autolysosomes were found in the hepatocye"}, {"measurement": "TEM of liver, Day 3 of the 7-day cycle", "setting": "hepatocyte; [7]", "value": "extensive lipophagy was observed"}, {"measurement": "TEM of liver, Day 5 of the 7-day cycle", "setting": "hepatocyte; [7]", "value": "autolysosome and lipophagy became rare"}, {"measurement": "TEM of liver, Day 7 of the 7-day cycle", "setting": "hepatocyte; [7]", "value": "no autophagosome and no lipophagy was observed"}, {"measurement": "p62 protein level in BAT", "setting": "[2]; DIO C57BL/6J male mice on HFD, days of the 7-day cycle", "value": "significant decrease in p62 level at Day 3 and Day 5"}, {"measurement": "LC3-II/LC3-I ratio in BAT upon chloroquine injection", "setting": "[2]; [8]", "value": "dramatic increase upon injection of CQ"}, {"measurement": "ULK1 in BAT", "setting": "[2]; [8]", "value": "stimulation"}, {"measurement": "p70S6K1 in BAT", "setting": "[2]; [8]", "value": "significant suppression"}, {"measurement": "ATF4 level", "setting": "[3]; 24 hrs", "value": "dramatic increase"}, {"measurement": "Level of LC3B-II", "setting": "[3]; after 1 hr and 4 hrs", "value": "significantly increased"}, {"measurement": "Phosphorylation level of p70S6K1", "setting": "[3]; after 1 hr, 4 hrs, 8 hrs or 24 hrs", "value": "significantly decreased"}, {"measurement": "Level of p62", "setting": "[3]; after 4 hrs and 8 hrs", "value": "significantly decreased"}, {"measurement": "Proportion of glycosylated POMC", "setting": "[3]; after 24 hrs", "value": "significantly increased"}, {"measurement": "Phosphorylation level of eIF2α", "setting": "[3]; at 8 hrs or 24 hrs", "value": "significant increase"}, {"measurement": "Insulin sensitivity in ITT", "setting": "[4]", "value": "significantly improve insulin sensitivity; also recorded: effectively improve insulin sensitivity"}]}]}
